Measurements published in paper PMC5153249.
pKd: −log10 of the molar value.

Key:
Assay in all cases: EMSA
[1] = test system: eIF3 (i Q258R) (Saccharomyces cerevisiae); conditions: mean of 2, Met-charged tRNAi, 30 mM HEPES-KOH pH 7.4, 100 mM KOAc, 3 mM Mg(OAc)2, 2 mM DTT, 1 mM GDPNP, 26 C, 2 h, native 4% THEM gel
[2] = test system: eIF3 WT (a/b/c/i/g) (Saccharomyces cerevisiae); conditions: Met-charged tRNAi, 30 mM HEPES-KOH pH 7.4, 100 mM KOAc, 3 mM Mg(OAc)2, 2 mM DTT, 1 mM GDPNP, 26 C, 2 h, native 4% THEM gel
[3] = test system: eIF3 a/b/c sub-complex (Saccharomyces cerevisiae); conditions: mean of 2, Met-charged tRNAi, 30 mM HEPES-KOH pH 7.4, 100 mM KOAc, 3 mM Mg(OAc)2, 2 mM DTT, 1 mM GDPNP, 26 C, 2 h, native 4% THEM gel
[4] = test system: eIF3 (a H725P) (Saccharomyces cerevisiae); conditions: mean of 2; Met-charged tRNAi; uncapped mRNA; 30 mM HEPES-KOH pH 7.4, 100 mM KOAc, 3 mM Mg(OAc)2, 2 mM DTT, 1 mM GDPNP, 26 C, 2 h; native 4% THEM gel
[5] = test system: eIF3 (a Box6) (Saccharomyces cerevisiae); conditions: mean of 2, Met-charged tRNAi, 30 mM HEPES-KOH pH 7.4, 100 mM KOAc, 3 mM Mg(OAc)2, 2 mM DTT, 1 mM GDPNP, 26 C, 2 h, native 4% THEM gel
[6] = test system: eIF3 (a Box37) (Saccharomyces cerevisiae); conditions: mean of 2, Met-charged tRNAi, 30 mM HEPES-KOH pH 7.4, 100 mM KOAc, 3 mM Mg(OAc)2, 2 mM DTT, 1 mM GDPNP, 26 C, 2 h, native 4% THEM gel
[7] = test system: eIF3 (g KLF) (Saccharomyces cerevisiae); conditions: mean of 2, Met-charged tRNAi, 30 mM HEPES-KOH pH 7.4, 100 mM KOAc, 3 mM Mg(OAc)2, 2 mM DTT, 1 mM GDPNP, 26 C, 2 h, native 4% THEM gel
[8] = test system: eIF3 (c delta60) (Saccharomyces cerevisiae); conditions: mean of 2, Met-charged tRNAi, 30 mM HEPES-KOH pH 7.4, 100 mM KOAc, 3 mM Mg(OAc)2, 2 mM DTT, 1 mM GDPNP, 26 C, 2 h, native 4% THEM gel
[9] = test system: eIF3 (a R731I) (Saccharomyces cerevisiae); conditions: mean of 2; Met-charged tRNAi; uncapped mRNA; 30 mM HEPES-KOH pH 7.4, 100 mM KOAc, 3 mM Mg(OAc)2, 2 mM DTT, 1 mM GDPNP, 26 C, 2 h; native 4% THEM gel
[10] = test system: eIF3 (a delta8) (Saccharomyces cerevisiae); conditions: mean of 2, Met-charged tRNAi, 30 mM HEPES-KOH pH 7.4, 100 mM KOAc, 3 mM Mg(OAc)2, 2 mM DTT, 1 mM GDPNP, 26 C, 2 h, native 4% THEM gel
[11] = test system: eIF3 (c GAP85) (Saccharomyces cerevisiae); conditions: mean of 2, Met-charged tRNAi, 30 mM HEPES-KOH pH 7.4, 100 mM KOAc, 3 mM Mg(OAc)2, 2 mM DTT, 1 mM GDPNP, 26 C, 2 h, native 4% THEM gel
[12] = test system: eIF3 (c Box12-SPW) (Saccharomyces cerevisiae); conditions: mean of 2; Met-charged tRNAi; 30 mM HEPES-KOH pH 7.4, 100 mM KOAc, 3 mM Mg(OAc)2, 2 mM DTT, 1 mM GDPNP, 26 C, 2 h; native 4% THEM gel

48S PIC (40S rRNA + Met-tRNAi + AUG model mRNA)
pKd ([1]; uncapped mRNA): 7.31 | pKd ([2]; mean of 2, uncapped mRNA): 7.43 | pKd ([3]; uncapped mRNA): 6.96 | pKd [4]: 7.20 | pKd ([5]; uncapped mRNA): 7.42 | pKd ([6]; uncapped mRNA): 7.08 | pKd ([7]; uncapped mRNA): 7.28 | pKd ([8]; uncapped mRNA): 7.33 | pKd [9]: 7.30 | pKd ([10]; uncapped mRNA): 7.05 | pKd ([11]; uncapped mRNA): 7.42

43S PIC (40S rRNA + Met-tRNAi)
pKd ([1]; upper limit): 7.52 | pKd ([2]; mean of 43, 24, text <=38 nM, upper limit): 7.47 | pKd [3]: 7.03 | pKd [5]: 7.46 | pKd [6]: 7.23 | pKd ([7]; upper limit): 7.67 | pKd ([8]; upper limit): 7.62 | pKd [10]: 7.06 | pKd [12]: 7.18 | pKd ([11]; upper limit): 7.58
